Drawing on article PMC8431788, “Characterization of Protocatechuate 4,5-Dioxygenase from Pseudarthrobacter phenanthrenivorans Sphe3 and In Situ Reaction Monitoring in the NMR Tube” (International Journal of Molecular Sciences, 2021), this text covers Km for 1 protein.

Substrate in this data set: O=C(O)c1ccc(O)c(O)c1
Put plainly: spectrophotometric CHMS formation, nonlinear Michaelis-Menten fit. It counts as biochemical, Pseudarthrobacter phenanthrenivorans. The settings on record: 100 mM glycine-NaOH pH 9.5, 20 °C, co-substrate O2, Fe(II)/L-ascorbate preincubation likely, not stated for the Km.

B1: PcaA (PCA 4,5-dioxygenase) (Pseudarthrobacter phenanthrenivorans Sphe3) (protein)
chain: MTLDKPYNDVPGTTIFDADQARKGYNLNQFCMSLMKPENRERYLADRGAYLDEWPLNPVQRQAVLDIDLNTCIAEGGNIYFLAKIGATHGLSFQQMAGSMTGMSEAAYRDMMIGGGRRPEGNRLKDLDGWTPPEPGEKAETVRQDAPAQYTSALFTSHVPAIGAAMDLGKTEEPYWKKVFSGYEWTREWAKENLPDVVILVYNDHATAFDSSIIPTFVLGTGAEYPVADEGYGPRPVPDVKGYPELAAHIAQSVIQDDFDLTLVNEMVVDHGLTVPLSLVYGDVEEWPVRVIPLAVNVVQYPVPSGRRCYELGRALRRALDKWDGEPLNVQIWGTGGMSHQLQGPRAGLINEEWDNAFLDHLIADPVGLTEWQHMEYVDEAGSEGIELVDWLIARGAMDDQFGGESPEVNHRFYHVPASNTAVGHLVLTNQTD
notes: full-length single-subunit alpha-beta fusion from plasmid pASPHE302; 1302 bp amplicon NdeI/XhoI in pET29c(+), His-column purified from E. coli BL21(DE3); ~45 kDa on SDS-PAGE, predicted 48 kDa
Broadly, the Km is the concentration of substrate that gives half-maximal velocity. As for B1, the Km is 21 ± 1.6 µM.
